Numbering of substitutions follows the chain as printed.
B1: 2/99 VH1/VL14 (antibody, V domains shown)
VH: VQLVETGGGLIQPGGSLRLSCAASGFSLSSYAMSWVRQAPGKGLEWVGYIWSGGSTDYADSVKGRFTISRDNSKNTLYLQMNSLRAEDTAVYYCARRYGTSYPDYGDANGFDPWGQGTLVTVSS
VL: DIVMTQSPDSLAVSLGERATINCKSSQSISSYLSWYQQKPGQRPKLLIYRASTLASGVPDRFSGSGSGTDFTLTISSLQAEDVAVYYCQQSYSSSNVDNTFGGGTKVEIK
B2: 2/99 VH5/VL14 (antibody, V domains shown)
VH: B1 VH with V1Q, Q2S, L3M, V4E, Q116P
VL: B1 VL
B3: 2/99 VH2/VL14 (antibody, V domains shown)
VH: EVQLVETGGGLIQPGGSLRLSCAASGFSLSSYAMSWVRQAPGKGLEWVGYIWSGGSTDYADSVKGRFTISRDNSKNTLYLQMNSLRAEDTAVYYCARRYGTSYPDYGDANGFDPWGQGTLVTVSS
VL: B1 VL
B4: 2/99 VH8/VL10 (antibody, V domains shown)
VH: QQLVETGGGLIQPGGSLRLSCAASGFSLSSYAMSWVRQAPGKGLEWIGYIWSGGSTDYASWAKGRFTISKTSTTLYLQMNSLRAEDTAVYYCARRYGTSYPDYGDANGFDPWGQGTLVTVSS
VL: DIQMTQSPSSLSASVGDRVTITCRASQSISSYLSWYQQKPGKAPKLLIYRASTLASGVPSRFSGSRSGTDFTLTISSLQPEDFATYYCQQSYSSSNVDNTFGGGTKVEIK
B5: 2/99 VH18/VL12 (antibody, V domains shown)
VH: QVQLQESGPGLVKPSQTLSLTCTVSGFSLSSYAMSWIRQHPGKGLEWIGYIWSGGSTDYAPSLKSRVTISVDTSKNQFSLKLSSVTAADTAVYYCARRYGTSYPDYGDANGFDPWGQGTLVTVSS
VL: B4 VL with S34A, S91H
B6: 2/99 VH19/VL10 (antibody, V domains shown)
VH: QSMQESGPGLVKPSQTLSLTCTVSGFSLSSYAMSWIRQHPGKGLEWIGYIWSGGSTDYAPSLKSRVTISVDTSKNQFSLKLSSVTAADTAVYYCARRYGTSYPDYGDANGFDPWGQGTLVTVSS
VL: B4 VL
B7: 2/99 VH17/VL10 (antibody, V domains shown)
VH: B6 VH with S2Q, M3L, Q15E, I36V, H39P, A59N, V70K, F77V, Q116P
VL: B4 VL
B8: 2/99 VH15/VL10 (antibody, V domains shown)
VH: B6 VH with S2Q, M3L, Q15E, I36V, H39P, A59N, F77V
VL: B4 VL
B9: 2/99 VH22/VL12 (antibody, V domains shown)
VH: B6 VH with I36V, P60S, S61W, L62A, F77V
VL: B4 VL with S34A, S91H
B10: 2/99 VH12/VL12 (antibody, V domains shown)
VH: B5 VH with Q16E, H40P, A60N
VL: B4 VL with S34A, S91H
B11: 2/99 VH20/VL12 (antibody, V domains shown)
VH: B6 VH with F77V
VL: B4 VL with S34A, S91H
B12: 2/99 VH15/VL12 (antibody, V domains shown)
VH: B6 VH with S2Q, M3L, Q15E, I36V, H39P, A59N, F77V
VL: B4 VL with S34A, S91H
B13: 2/99 VH21/VL12 (antibody, V domains shown)
VH: B6 VH with P60S, S61W, L62A, F77V
VL: B4 VL with S34A, S91H
B14: 2/99 VH13/VL10 (antibody, V domains shown)
VH: B5 VH with Q16E, H40P, A60N, F78V
VL: B4 VL
B15: 2/99 VH16/VL10 (antibody, V domains shown)
VH: B6 VH with S2Q, M3L, Q15E, I36V, H39P, A59N, F77V, Q116P
VL: B4 VL
B16: 2/99 VH5/VL12 (antibody, V domains shown)
VH: B1 VH with V1Q, Q2S, L3M, V4E, Q116P
VL: B4 VL with S34A, S91H
B17: 2/99 VH11/VL12 (antibody, V domains shown)
VH: B1 VH with V1Q, V4L, T6S, I11V
VL: B4 VL with S34A, S91H
B18: 2/99 VH16/VL12 (antibody, V domains shown)
VH: B6 VH with S2Q, M3L, Q15E, I36V, H39P, A59N, F77V, Q116P
VL: B4 VL with S34A, S91H
B19: 2/99 VH6/VL12 (antibody, V domains shown)
VH: B1 VH with V1Q, V47I
VL: B4 VL with S34A, S91H
B20: 2/99 VH9/VL10 (antibody, V domains shown)
VH: B1 VH with V1Q, V4L, T6S, I11V, S27T, L28F, R96K
VL: B4 VL
B21: 2/99 VH21/VL10 (antibody, V domains shown)
VH: B6 VH with P60S, S61W, L62A, F77V
VL: B4 VL
B22: 2/99 VH8/VL12 (antibody, V domains shown)
VH: B4 VH
VL: B4 VL with S34A, S91H
B23: 2/99 VH18/VL10 (antibody, V domains shown)
VH: B5 VH
VL: B4 VL
B24: 2/99 VH1/VL12 (antibody, V domains shown)
VH: B1 VH
VL: B4 VL with S34A, S91H
B25: 2/99 VH9/VL12 (antibody, V domains shown)
VH: B1 VH with V1Q, V4L, T6S, I11V, S27T, L28F, R96K
VL: B4 VL with S34A, S91H
B26: 2/99 VH2/VL12 (antibody, V domains shown)
VH: B3 VH
VL: B4 VL with S34A, S91H
B27: 2/99 VH23-DANG/VL10 (antibody, V domains shown)
VH: QSMQESGPGLVKPSQTLSLTCTVSGFSLSSYAMSWIRQHPGKGLEWIGYIWSGGSTDYASWAKSRVTISKTSTTVSLKLSSVTAADTAVYYCARRYGTSYPDYGDANGFDPWGQGTLVTVSS
VL: B4 VL
B28: 2/99 VH13/VL12 (antibody, V domains shown)
VH: B5 VH with Q16E, H40P, A60N, F78V
VL: B4 VL with S34A, S91H
B29: 2/99 VH22/VL10 (antibody, V domains shown)
VH: B6 VH with I36V, P60S, S61W, L62A, F77V
VL: B4 VL
B30: 2/99 VH19/VL12 (antibody, V domains shown)
VH: B6 VH
VL: B4 VL with S34A, S91H
B31: 2/99 VH11/VL10 (antibody, V domains shown)
VH: B1 VH with V1Q, V4L, T6S, I11V
VL: B4 VL
B32: 2/99 VH7/VL12 (antibody, V domains shown)
VH: B1 VH with V1Q, V47I, D60S, S61W, V62A
VL: B4 VL with S34A, S91H
B33: 2/99 VH17/VL12 (antibody, V domains shown)
VH: B6 VH with S2Q, M3L, Q15E, I36V, H39P, A59N, V70K, F77V, Q116P
VL: B4 VL with S34A, S91H
B34: 2/99 VH12/VL10 (antibody, V domains shown)
VH: B5 VH with Q16E, H40P, A60N
VL: B4 VL
B35: 2/99 VH20/VL10 (antibody, V domains shown)
VH: B6 VH with F77V
VL: B4 VL

The binders below were run against T1, human transferrin receptor (recombinant, for surface plasmon resonance) (human, UniProt P02786 89-760) (assay: SPR 25C).
T1 construct: also called huTfR; human transferrin receptor-biotinylated
T1 sequence (P02786 89-760 limits assumed): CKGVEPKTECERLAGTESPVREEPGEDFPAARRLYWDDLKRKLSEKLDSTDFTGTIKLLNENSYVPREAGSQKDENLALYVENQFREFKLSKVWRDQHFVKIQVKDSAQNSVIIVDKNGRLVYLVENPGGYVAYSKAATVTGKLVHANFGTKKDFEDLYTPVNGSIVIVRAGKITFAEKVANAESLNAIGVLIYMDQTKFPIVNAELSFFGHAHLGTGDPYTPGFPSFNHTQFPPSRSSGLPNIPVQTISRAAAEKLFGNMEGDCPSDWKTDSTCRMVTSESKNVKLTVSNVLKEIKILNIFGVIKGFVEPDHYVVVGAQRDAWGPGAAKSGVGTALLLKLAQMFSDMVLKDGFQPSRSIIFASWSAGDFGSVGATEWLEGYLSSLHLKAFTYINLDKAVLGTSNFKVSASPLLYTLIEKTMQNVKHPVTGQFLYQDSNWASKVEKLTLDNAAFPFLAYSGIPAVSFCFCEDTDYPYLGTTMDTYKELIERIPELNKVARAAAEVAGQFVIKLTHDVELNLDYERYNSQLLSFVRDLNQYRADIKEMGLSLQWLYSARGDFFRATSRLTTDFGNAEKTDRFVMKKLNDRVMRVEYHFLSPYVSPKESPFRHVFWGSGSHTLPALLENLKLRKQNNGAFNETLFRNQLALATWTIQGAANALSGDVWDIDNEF

| Binder | koff |
| --- | --- |
| B1 | 0.00299 s⁻¹ |
| B2 | 0.00233 s⁻¹ |
| B3 | 0.00244 s⁻¹ |
| B4 | 0.00173 s⁻¹ |
| B5 | 0.001 s⁻¹ |
| B6 | 0.001 s⁻¹ |
| B7 | 0.00188 s⁻¹ |
| B8 | 0.00399 s⁻¹ |
| B9 | 0.00644 s⁻¹ |
| B10 | 0.001 s⁻¹ |
| B11 | 0.001 s⁻¹ |
| B12 | 0.00764 s⁻¹ |
| B13 | 0.00754 s⁻¹ |
| B14 | 0.00589 s⁻¹ |
| B15 | 0.00424 s⁻¹ |
| B16 | 0.001 s⁻¹ |
| B17 | 0.00787 s⁻¹ |
| B18 | 0.00754 s⁻¹ |

| Binder | koff |
| --- | --- |
| B19 | 0.00778 s⁻¹ |
| B20 | 0.00719 s⁻¹ |
| B21 | 0.00211 s⁻¹ |
| B22 | 0.00672 s⁻¹ |
| B23 | 0.00746 s⁻¹ |
| B24 | 0.00705 s⁻¹ |
| B25 | 0.001 s⁻¹ |
| B26 | 0.00814 s⁻¹ |
| B27 | 0.0012 s⁻¹ |
| B28 | 0.00785 s⁻¹ |
| B29 | 0.00209 s⁻¹ |
| B30 | 0.001 s⁻¹ |
| B31 | 0.00716 s⁻¹ |
| B32 | 0.00775 s⁻¹ |
| B33 | 0.00284 s⁻¹ |
| B34 | 0.00779 s⁻¹ |
| B35 | 0.00705 s⁻¹ |

— patent publication US20180291110A1 (Hoffmann-La Roche, published 2018)
